The target in the assay is T1, human CD24 on human cancer cell lines (MCF7, A549, Huh7) (human, UniProt P25063 27-59).
T1 construct: whole, on cells; Endogenous CD24 on cancer cell lines
T1 chain (looked up): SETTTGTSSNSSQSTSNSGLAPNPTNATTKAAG
Description: flow cytometry on fixed MCF-7 cells, FITC anti-human IgG.

Consider 2 molecules from EP4790070A1 (Daegu Gyeongbuk Institute of Science and Technology, dated 2026).

B1: anti-CD24 antibody #1 (Fc fusion)
VH: MAQVQLLESGGGVVQPGRSLRLSCAASGFTFSSYGMHWVRQAPGKGLEWVSGMSGDGLATYYADSVKGRFTISRDNSKNTLYLQMNSLRAEDTAVYYCARDSSSWYGGYYYYYGMDVWGQGTTVTVSSGS
VL: DIQMTQSPSSVSASVGDRVTITCRASQGISSWLAWYQQKPGKAPKLLIYAASSLQSGVPPRFSGSGSGTDFTLTISSLQPEDFATYYCQQSYSTPLTFGGGTKVEIKR
notes: also called Candidate 1; αCD24 antibody (#1)
B1: the binding result is reported as “binds”.

B2: anti-CD24 antibody #2 (Fc fusion)
VH: MAQVQLVQSGGGLIQPGGSLRLSCAASGFTVSSNYMSWVRQAPGKGLEWVSVIYSGGSTYYADSVKGRFTISRDNSKNTLYLQMNSLRAEDTAVYYCAREYGDYFDYWGQGTLVTVSSGS
VL: QSALTQPASVSGSPGQSITISCTGTSSDVGGYDHVSWYQQHPGKAPKLMIYEVTKRPSGVSDRFSGSKSGNTASLTISGLQADDEADYYCSSYAGSNSVLFGGGTQLTVLG
notes: also called Candidate 2
As to B2, the binding result is “binds”.
